Source: patent US20170037110A1 (IMMATICS BIOTECHNOLOGIES, published 2017)

B1: DDX5-001 (YLLPAIVHI from DDX5) (peptide)
peptide: YLLPAIVHI
notes: Peptide of the negative control pMHC for the T-cell stimulations; also called 665

These binders were tested against T1, HLA-A*02:01 (human) (assay: pMHC used for negative control stimulations, biotin-pMHC on streptavidin beads).
T1 construct: Construct limits and biotin tag are not described
B1: binds.

Each binder was assayed against T2, HLA-A*02:01 (human) (assay: UV peptide exchange ELISA).
T2 construct: monomers captured on streptavidin plates; also called MHC class I
Outline: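 Read-out is an ELISA on the UV-exchange reaction: monomers, diluted 100-fold, are captured on streptavidin and the β2m light chain is detected with 2 μg/ml HRP antibody and TMB at 450 nm.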
In the case of YLLEQIKLIEV, the peptide exchange yield is reported as ≥ 75%. Work on FLIEPEHVNTV yielded a peptide exchange yield of 20 to 50%. SILDRDDIFV was tested, and the peptide exchange yield was 50 to 75%. KLYEAVPQL showed a peptide exchange yield of 50 to 75%. In the case of ALWETEVYI, the peptide exchange yield is reported as 50 to 75%. RLYSGISGLEL gave a peptide exchange yield of 50 to 75%. SLLSVSHAL was tested, and the peptide exchange yield was 50 to 75%. YLPAVFEEV gave a peptide exchange yield of 50 to 75%. In the case of ALWKQLLEL, the peptide exchange yield is reported as 50 to 75%. In the case of LLAPTPYIIGV, the peptide exchange yield is reported as 50 to 75%. For YLLDDGTLVV, the peptide exchange yield was ≥ 75%. YLYNEGLSV was tested, and the peptide exchange yield was 50 to 75%. Work on RLLPPGAVVAV yielded a peptide exchange yield of 50 to 75%. With LLLPDQPPYHL the peptide exchange yield was 50 to 75%. For VLPPDTDPA, the peptide exchange yield was 20 to 50%. Binder VLIDEVESL has a peptide exchange yield of 50 to 75%. For ALMYESEKVGV, the peptide exchange yield was 50 to 75%. Work on VLFDSESIGIYV yielded a peptide exchange yield of 50 to 75%. SLSELEALM showed a peptide exchange yield of 50 to 75%. ALQDRVPLA gave a peptide exchange yield of 50 to 75%. In the case of KLLNKIYEA, the peptide exchange yield is reported as ≥ 75%. In the case of VLMDRLPSLL, the peptide exchange yield is reported as ≥ 75%. With RLLGEEVVRVLQA the peptide exchange yield was 50 to 75%. Binder YLVEDIQHI has a peptide exchange yield of 50 to 75%. In the case of SLDSTLHAV, the peptide exchange yield is reported as 50 to 75%. LLPDLEFYV was tested, and the peptide exchange yield was ≥ 75%. In the case of FLLAHGLGFLL, the peptide exchange yield is reported as ≥ 75%. With KMIETDILQKV the peptide exchange yield was ≥ 75%. Binder SLLEQGKEPWMV has a peptide exchange yield of 50 to 75%. In the case of SLLDLETLSL, the peptide exchange yield is reported as ≥ 75%. For KLYEGIPVLL, the peptide exchange yield was ≥ 75%. For TLAELQPPVQL, the peptide exchange yield was 50 to 75%. With IMEDIILTL the peptide exchange yield was 50 to 75%. For FLQGYQLHL, the peptide exchange yield was ≥ 75%. For VLLDVSAGQLLM, the peptide exchange yield was ≥ 75%. YLLPSGGSVTL gave a peptide exchange yield of 20 to 50%. For YAAPGGLIGV, the peptide exchange yield was 20 to 50%. In the case of FLDENIGGVAV, the peptide exchange yield is reported as 50 to 75%. TLLAEALVTV gave a peptide exchange yield of 50 to 75%. SLMELPRGLFL was tested, and the peptide exchange yield was ≥ 75%. Binder FQLDPSSGVLVTV has a peptide exchange yield of 50 to 75%. In the case of GLLDYPVGV, the peptide exchange yield is reported as 50 to 75%. GILARIASV showed a peptide exchange yield of 50 to 75%. Binder SLLELDGINL has a peptide exchange yield of 50 to 75%. Work on NIFDLQIYV yielded a peptide exchange yield of 50 to 75%. For ALLDPEVLSIFV, the peptide exchange yield was 50 to 75%. In the case of GLLEVMVNL, the peptide exchange yield is reported as 50 to 75%. Binder ILIDSIYKV has a peptide exchange yield of 50 to 75%. In the case of ILVEADGAWVV, the peptide exchange yield is reported as ≥ 75%. For SLFSSLEPQIQPV, the peptide exchange yield was 50 to 75%. SLFIGEKAVLL was tested, and the peptide exchange yield was 50 to 75%. Binder FLYDNLVESL has a peptide exchange yield of 20 to 50%. For FLFSQLQYL, the peptide exchange yield was 20 to 50%. FLSSVTYNL gave a peptide exchange yield of 50 to 75%. Binder ILAPTVMMI has a peptide exchange yield of 50 to 75%. In the case of VTFGEKLLGV, the peptide exchange yield is reported as 20 to 50%. KMSELRVTL showed a peptide exchange yield of 50 to 75%. In the case of NLIGKIENV, the peptide exchange yield is reported as 50 to 75%. Binder ALPEAPAPLLPHIT has a peptide exchange yield of 20 to 50%. For FLLVGDLMAV, the peptide exchange yield was 50 to 75%. For YILPTETIYV, the peptide exchange yield was ≥ 75%. For TLLQIIETV, the peptide exchange yield was 50 to 75%. In the case of IMQDFPAEIFL, the peptide exchange yield is reported as ≥ 75%. YLIPFTGIVGL was tested, and the peptide exchange yield was 20 to 50%.

What follows are binders tested against T1, HLA-A*02:01 (assay: pMHC complex coated on artificial APCs and used as fluorescent multimer A*02/SeqID No 663).
KIQEMQHFL (also called MMP12 peptide) [SeqID No 663 peptide (KIQEMQHFL)]: binds.

These binders were tested against T1, HLA-A*02:01 (assay: pMHC complex coated on artificial APCs and used as fluorescent multimer A*02/SeqID No 662).
KIQEILTQV (also called IGF2BP3 peptide) [SeqID No 662 peptide (KIQEILTQV)]: binds.
